Results from patent US20220378925A1 (ORIONIS BIOSCIENCES, published 2022).
Values belong to the binder of their own block, whether it stands above or below them.

Target: PD-L1 endogenously expressed on HL116 cells (human, UniProt Q9NZQ7 19-290)
Test: cell-based or functional assay

Sequence of PD-L1 endogenously expressed on HL116 cells (Q9NZQ7 19-290): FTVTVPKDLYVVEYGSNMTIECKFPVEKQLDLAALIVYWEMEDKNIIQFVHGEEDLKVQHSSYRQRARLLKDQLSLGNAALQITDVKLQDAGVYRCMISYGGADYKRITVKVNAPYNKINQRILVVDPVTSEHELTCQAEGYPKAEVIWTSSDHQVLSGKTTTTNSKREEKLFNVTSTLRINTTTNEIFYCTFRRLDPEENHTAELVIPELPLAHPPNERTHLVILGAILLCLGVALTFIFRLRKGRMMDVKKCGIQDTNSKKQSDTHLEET

- decrease of biological activity after linker-cysteine PEGylation, HL116 reporter-assay: 10 fold
B1: 2LIG99-hIFNα1, linker-cysteine 12 kDa PEGylated (other)
chain: DVQLVESGGGLVQPGGSLRLSCTASGTIFSINRMDWFRQAPGKQRELVALITSGGTPAYADSAKGRFTISRDNSKNTVYLQMNSLRPEDTAVYYCHVSSGVYNYWGQGTLVTVSSGGSGGSGGSGGSGGSGGSGGSGGSGGSGGCGGSGGSGGSGGSGGSGGSGGSGGSGGSGGSCDLPETHSLDNRRTLMLLAQMSRISPSSCLMDRHDFGFPQEEFDGNQFQKAPAISVLHELIQQIFNLFTTKDSSAAWDEDLLDKFSTELYQQLNDLEACVMQEERVGETPLMNADSILAVKKYFRRITLYLTEKKYSPCAWEVVRAEIMRSLSLSTNLQERLRRKEHHHHHH
modifications: 12 kDa mPEG-Maleimide on the cysteine in the middle of the linker (about 75% monoPEGylated material)

- reduction in biological activity after N-terminal 20 kD PEGylation, HL116 reporter-assay: ~20 fold
B2: 2LIG99-hIFNα1, N-terminal 20 kDa PEGylated (other)
chain: DVQLVESGGGLVQPGGSLRLSCTASGTIFSINRMDWFRQAPGKQRELVALITSGGTPAYADSAKGRFTISRDNSKNTVYLQMNSLRPEDTAVYYCHVSSGVYNYWGQGTLVTVSSGGSGGSGGSGGSGGSGGSGGSGGSGGSGGCGGSGGSGGSGGSGGSGGSGGSGGSGGSGGSCDLPETHSLDNRRTLMLLAQMSRISPSSCLMDRHDFGFPQEEFDGNQFQKAPAISVLHELIQQIFNLFTTKDSSAAWDEDLLDKFSTELYQQLNDLEACVMQEERVGETPLMNADSILAVKKYFRRITLYLTEKKYSPCAWEVVRAEIMRSLSLSTNLQERLRRKEHHHHHH
modifications: 20 kDa mPEG-aldehyde on the N-terminal amine (mainly mono-PEGylated)

- drop of biological activity upon amine (poly)PEGylation, HL116 reporter-assay: ~20000 fold
B3: 2LIG99-hIFNα1, amine PEGylated (polyPEGylated, mPEG20K-Succinimidyl Carboxymethyl Ester) (other)
chain: DVQLVESGGGLVQPGGSLRLSCTASGTIFSINRMDWFRQAPGKQRELVALITSGGTPAYADSAKGRFTISRDNSKNTVYLQMNSLRPEDTAVYYCHVSSGVYNYWGQGTLVTVSSGGSGGSGGSGGSGGSGGSGGSGGSGGSGGCGGSGGSGGSGGSGGSGGSGGSGGSGGSGGSCDLPETHSLDNRRTLMLLAQMSRISPSSCLMDRHDFGFPQEEFDGNQFQKAPAISVLHELIQQIFNLFTTKDSSAAWDEDLLDKFSTELYQQLNDLEACVMQEERVGETPLMNADSILAVKKYFRRITLYLTEKKYSPCAWEVVRAEIMRSLSLSTNLQERLRRKEHHHHHH
modifications: several 20 kDa PEG groups on the N-terminal amine and/or lysine residues (mainly polyPEGylated, sites not stated)
